Measurements as given in patent publication US7250269B2, “Composition for assaying glycoprotein” (Asahi Kasei Pharma Corporation, priority 2001, dated 2007).

Key:
[1] = FOD enzyme activity / substrate specificity on glycated valine; assay type: biochemical
Description: (§1) 164 strains of mutant colonies obtained in Example 15 were cultured for 16 hours at 30° C. in 1.5 ml of a 3.7% BHI liquid medium (manufactured by DIFCO Co.) containing 50 μg/ml of ampicillin and 1 mM of IPTG. 1 ml of the culture broth was centrifuged (15,000 G for one minute at 4° C.) to collect cells. 200 μl of 10 mM Tris-HCl buffer solution (pH 8.0) was added to the collected cells. After crushing the cells using an ultrasonic breaker, the mixture was centrifuged (14,000 G for five minutes at 4° C.) to obtain a cell extract as a supernatant.
(§2) The glycated amino acid substrate specificity of FOD-mutated recombinant contained in the cell extract prepared in Example 16 was measured using the above-mentioned FOD enzyme activity measuring method.
(§3) Synthesis of an oligonucleotide having the base sequence of 1-27 in the sequence table Sequence ID No. 7 was consigned to an outside source (BEX Co., Ltd.). The oligonucleotide was subjected to the site-directed mutagenesis using the Mutan-K kit (manufactured by Takara Shuzo Co., Ltd.) according to the manual attached to the kit. The mutant gene obtained was incorporated again into the expression plasmid pTV119N, introduced into Escherichia coli host, and cultured at 30° C. for 16 hours in a 3.7% BHI liquid medium containing 50 μg/ml of ampicillin and 1 mM of IPTG to produce mutant FOD protein.

[2] = Isoelectric point by focusing electrophoresis; assay type: physicochemical; conditions: 700 V for 40 hours at 4° C.; carrier ampholyte
Description: The isoelectric point determined by fractionating the enzyme after applying a constant voltage of 700 V for 40 hours at 4° C. in a focusing electrophoresis using carrier ampholyte, followed by measuring the enzyme activity of each fraction, was pH 4.3±0.2.

[3] = FOD enzyme activity / substrate specificity on glycated lysine; assay type: biochemical
Description: as §1, §2, §3

B1: Reactive 327th amino acid Tryptophan: mutant obtained by replacing the lysine with tryptophan, named FOD-W; plasmid pcmFOD3; Sequence ID No. 2 (protein)
chain: ASTLTKQSQILIVGGGTWGCSTALHLARRGYTNVTVLDVNRIPSPISAGHDVNKLAGRLSTADSKGDDEDSIWKALSYAAAQGWLHDPVFQPFCHNTGSVVAGSTPKSIKQLVEDEIGDDIDQYTPLNTAEDFRKTMPEGILTGNFPGWKGFYKPTGSGWVHARKAMKAAFEESERLGVKFITGSPEGKVESLIFEDGDVRGAKTADGKEHRADRTILSAGASAEFFLDFENQIQPTAWTLGHIQMTPEETKLYKNLPPLFNINQGFFMEPDEDLHQLKMCDEHPGYCNWVEKPGSKYPQSIPFAKHQVPTEAERRMKQFLKDIMPQLADRPLVHARICWCADTQDRMFLITYHPRHPSLVIASGDCGTGYWHITSIGKFISDCMEGTLEERFAKFWRWRPEKFTEFWGKDPLDRFGADDKIMDLPKSDVEGWTNIKNDI
modifications: sequence derived from Fusarium oxysporum IFO- 9722
[1]
  Substrate specificity FV: 0%
[2]
  Isoelectric point: 4.3±0.2
40 mM Tris-HCl buffer solution (pH 7.5)
  Optimum temperature (maximum activity): 50 °C
100 mM buffers pH 4.4-10.3
  Optimum pH (maximum activity): 7.5
[3]
  Substrate specificity ZFL: 100%
[3]; glycated lysine / glycated valine
  Reactivity ratio, glycated lysine / glycated valine: 2980
